Reference: patent US20030113828A1, “Compositions and methods for modulating Syk function” (priority 2001, published 2003)
pEC50, pKd: −log10 of the molar value. Like-named read-outs stand apart in the source and are kept apart here. Values belong to the molecule of their own block, whether it stands above or below them. Square brackets hold non-standard residues; d marks the D form. Ends that are not written are not given here. Peptide text beside a SMILES is read from it. pY = N[C@@H](Cc1ccc(OP(=O)(O)O)cc1)C(=O)O

What was measured:
[1] = biological target: T1, Zap-70 (Homo sapiens, UniProt P43403); test: Affinity chromatography/direct binding of integrin tail model proteins to Zap-70; conditions: recombinant fragment, direct binding
T1 construct: A cDNA encoding residues 1-337 of human Zap-70 was cloned into pGEX-2T; made in house; host or cells: bacteria (pGEX-2T, IPTG induction)
T1 sequence (P43403 1-337): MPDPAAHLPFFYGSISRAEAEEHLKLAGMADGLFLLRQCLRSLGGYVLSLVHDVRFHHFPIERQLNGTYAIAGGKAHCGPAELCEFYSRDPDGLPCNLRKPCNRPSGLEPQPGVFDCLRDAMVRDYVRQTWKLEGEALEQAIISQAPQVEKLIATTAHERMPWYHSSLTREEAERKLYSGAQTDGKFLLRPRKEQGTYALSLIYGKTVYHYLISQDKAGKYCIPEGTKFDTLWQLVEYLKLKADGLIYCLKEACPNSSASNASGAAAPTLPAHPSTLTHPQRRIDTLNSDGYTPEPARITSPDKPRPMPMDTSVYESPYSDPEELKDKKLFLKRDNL
Method: (§1) A cDNA encoding residues 1-337 of human Zap-70 was cloned into pGEX-2T (Amersham Pharmacia Biotech).
(§2) Model protein mimics of integrin cytoplasmic domains αIIb, β1A, and β3 were prepared in accordance with procedures described by Pfaff et al. (1998) J Biol Chem 273:6104-6109). The β2 integrin cytoplasmic domain model protein was developed by PCR amplification of β2 cDNA using 5′-[…] (SEQ ID NO:7) and 3′-[…] (SEQ ID NO:8) primers. This primer set introduced a 5′ HindIII restriction site into the N-terminal region of the β2 cytoplasmic domain, resulting in the mutation, A725L. The 3′ primer contained a BamHI restriction site immediately downstream of dual stop codons. The PCR product was cloned into pCR2.1 as described in the TA Cloning® system (Invitrogen, Carlsbad, Calif.). After sequencing, pCR2.1-β2cyt was digested with BamHI and HindIII, and subcloned into a modified bacterial expression plasmid pET15bm (lacking the HindIII restriction site). All model proteins were verified by sequence analysis, expressed, HPLC purified and verified by electrospray ionization mass spectroscopy as described by Pfaff et al. ((1998) J Biol Chem 273:6104-6109).
(§3) Following incubation, beads were washed and bound protein was analyzed by immunoblotting.
(§4) For direct binding assays, model peptides (1 mg) were dissolved in 1 ml buffer containing 20 mM Tris (pH 7.9), 500 mM NaCl, and 6 M urea. To this, 50 ul packed His-Bind® Resin (Novagen, Madison, Wis.) was added and the mixture was rotated for 1 hour at room temperature. Immobilized peptides were washed 5× in above buffer without urea, and resuspended in 500 μl buffer containing 20 mM PIPES pH 6.8, 50 mM NaCl, 3 mM MgCl2, 150 mM sucrose, 50 mM NaF, 40 mM Na4P2O7*10H2O (buffer A) supplemented with 0.1% TritonX-100 and 3 mM MgCl2. Purified GST-fusion proteins were added to 0.5 ml buffer A supplemented with 0.1% TritonX-100 and 3 mM MgCl2. Five μl of total packed resin loaded with various integrin cytoplasmic domain model proteins was added to the GST-fusion protein. The mixture was incubated for 40 minutes at room temperature with continuous rotation. […]

[2] = tested on: Zap-70; test: as above; set-up: species or system human; conditions: Zap-70 from cell lysates
Method: as §1, §2, §3, §4

[3] = biological target: T2, Syk (Homo sapiens, UniProt P43405); test: Affinity chromatography/direct binding of integrin tail model proteins to Syk; set-up: made in house; host or cells: bacteria (pGEX vector, IPTG induction)
Method: as §2, §3
(§5) For direct binding assays, model peptides (1 mg) were dissolved in 1 ml buffer containing 20 mM Tris (pH 7.9), 500 mM NaCl, and 6 M urea. To this, 50 ul packed His-Bind® Resin (Novagen, Madison, Wis.) was added and the mixture was rotated for 1 hour at room temperature. Immobilized peptides were washed 5× in above buffer without urea, and resuspended in 500 μl buffer containing 20 mM PIPES pH 6.8, 50 mM NaCl, 3 mM MgCl2, 150 mM sucrose, 50 mM NaF, 40 mM Na4P2O7*10H2O (buffer A) supplemented with 0.1% TritonX-100 and 3 mM MgCl2. Purified GST-fusion proteins were added to 0.5 ml buffer A supplemented with 0.1% TritonX-100 and 3 mM MgCl2. Five μl of total packed resin loaded with various integrin cytoplasmic domain model proteins was added to the GST-fusion protein. The mixture was incubated for 40 minutes at room temperature with continuous rotation. The beads were then washed five times in buffer A with 0.1% TritonX-100 and 3 mM MgCl2. Bound proteins were eluted by boiling in reducing sample buffer, fractionated by SDS PAGE, and immuno-blotted.

[4] = biological target: T3, Syk binding to the β3 tail model proteins (Homo sapiens, UniProt P43405); test: β3 peptide competition in direct binding assay; conditions: peptide 1×10^−4 M, Syk 5×10^−9 M
T3 construct: made in house; host or cells: bacteria (pGEX vector, IPTG induction)
Method: Phosphorylation of the β3 integrin cytoplasmic domain occurs as a consequence of integrin engagement (Law et al. (1996) J Biol Chem 271:10811-10815). To determine if phosphorylation of the β3 cytoplasmic domain could affect Syk binding, competition assays were performed using tyrosine phosphorylated or non-phosphorylated peptides in the context of the last 23 amino acids of the β3 cytoplasmic domain. Peptides were used at a concentration 1×10^−4 M, and Syk was used at a concentration of 5×10^−9 M. The non-phosphorylated peptide competed for integrin β3 tail binding to Syk. In three experiments, there was a 52±3.4% decrease in Syk binding to the β3 tail model proteins in the presence of non-phosphorylated β3-23 peptide as compared to the phosphorylated peptide (β3-23P). […] Furthermore, phosphorylation of β3(Y747,759) reduces its capacity to compete for Syk binding to the unphosphorylated β3 tail.
as §4
For peptide competition assays, peptides were pre-incubated with Syk(6-370) for one hour before direct binding assays were performed. Peptides were used at a concentration of 1×10^−4 M, and Syk(6-370) was used at a concentration of 2×10^−9 M. Bound Syk was detected as described above. […]

[5] = biological target: T4, integrin β3 cytoplasmic tail (Homo sapiens, UniProt P05106); test: Affinity chromatography/direct binding of kinase fragments to integrin tail; conditions: recombinant fragments, direct binding assay
T4 construct: made in house
T4 sequence (P05106 742-788 limits assumed): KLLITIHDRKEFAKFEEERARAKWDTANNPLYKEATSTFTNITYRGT
Method: as §3, §5

[6] = biological target: T5, binding of Syk(6-370) to the β3 tail (Homo sapiens, UniProt P43405); test: pITAM peptide competition in direct binding assay; conditions: soluble pITAM peptide 40 μM, 8000-fold molar excess
T5 construct: made in house; host or cells: bacteria (pGEX vector, IPTG induction)
Method: To verify that the Syk-β3 interaction is pITAM-independent mechanism, the effect of 8000-fold molar excess of PITAM peptides on binding of Syk(6-370) to the β3 tail was examined. […] Similar data were obtained in a quantitative enzyme-linked immunosorbent assay. The FcεRIγ pITAM peptides were functional, as they activated Syk kinase (EC50 1-2 μM) in vitro (Shiue et al.(1995) J Biol Chem 270:10498-10502). Thus, Syk recognition of β3 involves a unique specificity, distinct from Syk's interaction with pITAMs.
as §3

[7] = biological target: T2, Syk; test: Syk kinase activation in vitro; format: biochemical
[8] = biological target: Syk(6-370) (Homo sapiens, UniProt P43405); conditions: Ottinger et al. 1998, cited from earlier work
[9] = recombinant fragment, direct binding

Molecule: αIIb tail: αIIb integrin cytoplasmic tail model protein (KVGFFKRNRPPLEEDDEEGE; not fully specified)
binding of Zap-70 to integrin tail model protein [1]: No binding was detected
binding of Zap-70 to integrin tail model protein [2]: no detectable binding
binding of Syk to integrin tail model protein ([3]; Syk from cell lysates): no detectable binding
binding of Syk to integrin tail model protein [3, 9]: No binding was detected

Molecule: β3-23 peptide: non-phosphorylated peptide of the last 23 amino acids of the β3 cytoplasmic domain (DTANNPLYKEATSTFTNITYRGT)
competition for integrin β3 tail binding to Syk [4]: competed
decrease in Syk binding to the β3 tail model proteins ([4]; three experiments, compared to the phosphorylated peptide (β3-23P)): 52±3.4%

Molecule: Zap-70(1-162): N-terminal SH2 domain of Zap-70 with its intact IA domain
binding to the β3 tail [5]: bound β3 to a similar extent as the tandem SH2 domains

Molecule: β3-23P: tyrosine phosphorylated peptide of the last 23 amino acids of the β3 cytoplasmic domain (DTANNPLYKEATSTFTNITYRGT; also: tyrosine phosphorylated, site not given here) [reference compound]
competition for integrin β3 tail binding to Syk [4]: did not detectably compete

Molecule: NQLY(PO3)NELNLGRREEY(PO3)DVLV (SEQ ID NO:2) (NQL[pY]NELNLGRREE[pY]DVLV) [dually-phosphorylated TCRξ chain ITAM peptide]
competition with the β3 integrin cytoplasmic tail for binding to Syk(6-370) [6]: failed to compete

Molecule: Syk(163-270): Syk fragment containing only the C-terminal SH2 domain
binding to the β3 tail [5]: failed to bind

Molecule: β3(759X): β3 tail with deletion of the last 4 C-terminal residues (KLLITIHDRKEFAKFEEERARAKWDTANNPLYKEATSTFTNIT; not fully specified)
binding of Syk to integrin tail model protein [3, 9]: abolished

Molecule: β3: recombinant model protein mimic of dimerized integrin β3 cytoplasmic tail (KLLITIHDRKEFAKFEEERARAKWDTANNPLYKEATSTFTNITYRGT; also: dimerised via Fc or GST (left off))
binding of Zap-70 to integrin tail model protein [2]: bound
binding of Syk to integrin tail model protein ([3]; Syk from cell lysates): bound

Continued, in another order:

binding of Syk to integrin tail model protein [3, 9]: abolished
Molecule: β3752X: β3 tail with removal of 11 C-terminal residues Thr752-Thr762 (KLLITIHDRKEFAKFEEERARAKWDTANNPLYKEAT; not fully specified)

binding to the β3 tail [5]: bound
Molecule: Syk(R195A): C-terminal SH2 domain mutant of Syk deficient in binding to pITAMs

binding to the β3 tail [5]: did not bind
Molecule: tandem SH2 domains of SHP-2: tandem SH2 domains of SHP-2

pEC50 [7]: 5.70 to 6.00
Molecule: CC(C)C[C@H](NC(=O)CNC(=O)[C@@H](NC(=O)[C@H](Cc1ccc(OP(=O)(O)O)cc1)NC(=O)[C@@H](NC(=O)CNC(=O)[C@@H](N)CC(=O)O)C(C)C)[C@@H](C)O)C(=O)N[C@@H](CO)C(=O)N[C@H](C(=O)N[C@@H](CCCNC(=N)N)C(=O)N[C@@H](CC(N)=O)C(=O)N[C@@H](CCC(N)=O)C(=O)N[C@@H](CCC(=O)O)C(=O)N[C@H](C(=O)N[C@@H](Cc1ccc(OP(=O)(O)O)cc1)C(=O)N[C@@H](CCC(=O)O)C(=O)N[C@H](C(=O)N[C@@H](CC(C)C)C(=O)N[C@@H](CCCCN)C(=O)N[C@H](C(=O)N[C@@H](CS)C(=O)N[C@@H](CCCNC(=N)N)C(=O)O)[C@@H](C)O)[C@@H](C)O)[C@@H](C)O)[C@@H](C)O [FcεRIγ ITAM peptide, DGVY(PO3)TGLSTRNQETY(PO3)ETLKTCR (SEQ ID NO:1)] (H-DGV[pY]TGLSTRNQET[pY]ETLKTCR-OH)
pKd ([8]; read-out: affinity of Syk for the dually phosphorylated FcεRIγ-ITAM): 8.59
pKd ([8]; reported, read-out: Kd for the interaction between Syk(6-370) and the FcεRIγ pITAM peptide): 8.59
